From US20070207960A1 (published 2007)

Tests used:
[1] = target: T1, plasma-derived human FVII (Enzyme Research Labs) (human, UniProt P08709 61-466); test: surface plasmon resonance (BIAcore); sTF captured by immobilized anti-TF antibody, FVII injected
T1 construct: mature; also called pdFVII; Standard FVII
T1 sequence (looked up): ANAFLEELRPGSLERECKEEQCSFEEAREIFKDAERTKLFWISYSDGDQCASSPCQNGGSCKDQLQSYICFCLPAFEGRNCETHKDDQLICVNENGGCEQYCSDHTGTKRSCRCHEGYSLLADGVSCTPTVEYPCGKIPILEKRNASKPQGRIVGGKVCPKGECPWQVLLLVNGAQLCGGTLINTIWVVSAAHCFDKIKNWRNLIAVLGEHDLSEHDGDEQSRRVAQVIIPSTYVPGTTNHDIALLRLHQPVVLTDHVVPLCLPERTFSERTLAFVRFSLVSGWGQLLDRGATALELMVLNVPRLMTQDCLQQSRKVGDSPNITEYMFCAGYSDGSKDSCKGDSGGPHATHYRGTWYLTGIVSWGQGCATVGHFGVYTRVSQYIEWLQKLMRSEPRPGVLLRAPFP
From the text: An anti-TF antibody was immobilized on the BIAcore flow cell at high density and subsequently reacted with recombinant sTF. […] Data from reference cells containing the same amount of anti-TF antibody but no sTF were subtracted to correct for non-specific binding. […]

[2] = target: T2, monoclonal antibody 231-7; test: competitive ELISA; rFVIIa competes with biotinylated plasma-derived FVII for adsorbed MoAb 231-7
T2 construct: Conformation-sensitive antibody to the FVII EGF-1 domain; also called MoAb231-7
Experimental: Following four washes with TBS-T w/o BSA containing 1 M NaCl, 100 μl streptavidin-alkaline phosphatase (1:25,000 dilution in TBS-T+BSA) was added for 1 hr, RT. After an additional four washes with TBS-T w/o BSA containing 1M NaCl, the colourimetric reaction was developed with 100 μl of 1 mg/ml p-nitrophenylphosphate in diethanolamine buffer (10% diethanolamine, 0.5 mM MgCl₂, pH 9.8). The reaction was stopped after 60 minutes by the addition of 25 μl of 0.5M EDTA to each well.

Binder | Kd [1] | Relative Increase in Affinity (relative to rFVIIa (wt)) [2]
recombinant soluble human tissue factor (receptor, UniProt P13726 33-251, looked up, extracellular domain; It was captured on the BIAcore chip by an immobilized anti-TF antibody; also called sTF; soluble human TF) SGTTNTVAAYNLTWKSTNFKTILEWEPKPVNQVYTVQISTKSGDWKSKCFYTTDTECDLTDEIVKDVKQTYLARVFSYPAGNVESTGSAGEPLYENSPEFTPYLETNLGQPTIQSFEQVGTKVNVTVEDERTLVRRNNTFLSLRDVFGKDLIYTLYYWKSSSSGKKTAKTNTNEFLIDVDKGENYCFSVQAVIPSRTVNRKSTDSPVECMGQEKGEFRE | 29 nM | 
rFVIIa(wt)-FFR (enzyme, human, active site covalently modified with the peptide chloromethylketone FFRck, range 1-152;range 153-406; also called rFVIIa(wt)-FFRck; rFVIIai(wt)) chain 1: ANAFLEELRPGSLERECKEEQCSFEEAREIFKDAERTKLFWISYSDGDQCASSPCQNGGSCKDQLQSYICFCLPAFEGRNCETHKDDQLICVNENGGCEQYCSDHTGTKRSCRCHEGYSLLADGVSCTPTVEYPCGKIPILEKRNASKPQGR chain 2: IVGGKVCPKGECPWQVLLLVNGAQLCGGTLINTIWVVSAAHCFDKIKNWRNLIAVLGEHDLSEHDGDEQSRRVAQVIIPSTYVPGTTNHDIALLRLHQPVVLTDHVVPLCLPERTFSERTLAFVRFSLVSGWGQLLDRGATALELMVLNVPRLMTQDCLQQSRKVGDSPNITEYMFCAGYSDGSKDSCKGDSGGPHATHYRGTWYLTGIVSWGQGCATVGHFGVYTRVSQYIEWLQKLMRSEPRPGVLLRAPFP |  | 1.4 fold
rFVIIa(wt)-DEGR (enzyme, human, active site covalently modified with the peptide chloromethylketone DEGRck, range 1-152;range 153-406; also called rFVIIa(wt)-DEGRck; rFVIIai(wt)) chain 1: ANAFLEELRPGSLERECKEEQCSFEEAREIFKDAERTKLFWISYSDGDQCASSPCQNGGSCKDQLQSYICFCLPAFEGRNCETHKDDQLICVNENGGCEQYCSDHTGTKRSCRCHEGYSLLADGVSCTPTVEYPCGKIPILEKRNASKPQGR chain 2: IVGGKVCPKGECPWQVLLLVNGAQLCGGTLINTIWVVSAAHCFDKIKNWRNLIAVLGEHDLSEHDGDEQSRRVAQVIIPSTYVPGTTNHDIALLRLHQPVVLTDHVVPLCLPERTFSERTLAFVRFSLVSGWGQLLDRGATALELMVLNVPRLMTQDCLQQSRKVGDSPNITEYMFCAGYSDGSKDSCKGDSGGPHATHYRGTWYLTGIVSWGQGCATVGHFGVYTRVSQYIEWLQKLMRSEPRPGVLLRAPFP |  | 2.8 fold
